Laboratory results from patent US7022496.

Biological target: catalytic subunit of the cellular DNA-dependent protein kinase (human) (UniProt P78527)
Test: cell-based or functional assay

adenovirus E4 34k protein (product of early region 4 ORF6), expressed from plasmid OE6.5 as a fusion with a c-myc epitope, sequence (P03239 whole entry, the tested form may be a part): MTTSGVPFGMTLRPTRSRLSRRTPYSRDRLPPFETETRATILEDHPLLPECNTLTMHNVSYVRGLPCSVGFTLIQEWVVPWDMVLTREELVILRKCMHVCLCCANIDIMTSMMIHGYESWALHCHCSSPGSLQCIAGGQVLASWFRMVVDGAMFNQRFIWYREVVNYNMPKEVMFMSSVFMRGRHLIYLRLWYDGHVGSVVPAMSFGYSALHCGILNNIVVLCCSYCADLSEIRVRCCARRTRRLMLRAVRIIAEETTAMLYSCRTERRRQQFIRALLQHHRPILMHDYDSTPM
UniProt P78527, sequence (P78527 whole entry): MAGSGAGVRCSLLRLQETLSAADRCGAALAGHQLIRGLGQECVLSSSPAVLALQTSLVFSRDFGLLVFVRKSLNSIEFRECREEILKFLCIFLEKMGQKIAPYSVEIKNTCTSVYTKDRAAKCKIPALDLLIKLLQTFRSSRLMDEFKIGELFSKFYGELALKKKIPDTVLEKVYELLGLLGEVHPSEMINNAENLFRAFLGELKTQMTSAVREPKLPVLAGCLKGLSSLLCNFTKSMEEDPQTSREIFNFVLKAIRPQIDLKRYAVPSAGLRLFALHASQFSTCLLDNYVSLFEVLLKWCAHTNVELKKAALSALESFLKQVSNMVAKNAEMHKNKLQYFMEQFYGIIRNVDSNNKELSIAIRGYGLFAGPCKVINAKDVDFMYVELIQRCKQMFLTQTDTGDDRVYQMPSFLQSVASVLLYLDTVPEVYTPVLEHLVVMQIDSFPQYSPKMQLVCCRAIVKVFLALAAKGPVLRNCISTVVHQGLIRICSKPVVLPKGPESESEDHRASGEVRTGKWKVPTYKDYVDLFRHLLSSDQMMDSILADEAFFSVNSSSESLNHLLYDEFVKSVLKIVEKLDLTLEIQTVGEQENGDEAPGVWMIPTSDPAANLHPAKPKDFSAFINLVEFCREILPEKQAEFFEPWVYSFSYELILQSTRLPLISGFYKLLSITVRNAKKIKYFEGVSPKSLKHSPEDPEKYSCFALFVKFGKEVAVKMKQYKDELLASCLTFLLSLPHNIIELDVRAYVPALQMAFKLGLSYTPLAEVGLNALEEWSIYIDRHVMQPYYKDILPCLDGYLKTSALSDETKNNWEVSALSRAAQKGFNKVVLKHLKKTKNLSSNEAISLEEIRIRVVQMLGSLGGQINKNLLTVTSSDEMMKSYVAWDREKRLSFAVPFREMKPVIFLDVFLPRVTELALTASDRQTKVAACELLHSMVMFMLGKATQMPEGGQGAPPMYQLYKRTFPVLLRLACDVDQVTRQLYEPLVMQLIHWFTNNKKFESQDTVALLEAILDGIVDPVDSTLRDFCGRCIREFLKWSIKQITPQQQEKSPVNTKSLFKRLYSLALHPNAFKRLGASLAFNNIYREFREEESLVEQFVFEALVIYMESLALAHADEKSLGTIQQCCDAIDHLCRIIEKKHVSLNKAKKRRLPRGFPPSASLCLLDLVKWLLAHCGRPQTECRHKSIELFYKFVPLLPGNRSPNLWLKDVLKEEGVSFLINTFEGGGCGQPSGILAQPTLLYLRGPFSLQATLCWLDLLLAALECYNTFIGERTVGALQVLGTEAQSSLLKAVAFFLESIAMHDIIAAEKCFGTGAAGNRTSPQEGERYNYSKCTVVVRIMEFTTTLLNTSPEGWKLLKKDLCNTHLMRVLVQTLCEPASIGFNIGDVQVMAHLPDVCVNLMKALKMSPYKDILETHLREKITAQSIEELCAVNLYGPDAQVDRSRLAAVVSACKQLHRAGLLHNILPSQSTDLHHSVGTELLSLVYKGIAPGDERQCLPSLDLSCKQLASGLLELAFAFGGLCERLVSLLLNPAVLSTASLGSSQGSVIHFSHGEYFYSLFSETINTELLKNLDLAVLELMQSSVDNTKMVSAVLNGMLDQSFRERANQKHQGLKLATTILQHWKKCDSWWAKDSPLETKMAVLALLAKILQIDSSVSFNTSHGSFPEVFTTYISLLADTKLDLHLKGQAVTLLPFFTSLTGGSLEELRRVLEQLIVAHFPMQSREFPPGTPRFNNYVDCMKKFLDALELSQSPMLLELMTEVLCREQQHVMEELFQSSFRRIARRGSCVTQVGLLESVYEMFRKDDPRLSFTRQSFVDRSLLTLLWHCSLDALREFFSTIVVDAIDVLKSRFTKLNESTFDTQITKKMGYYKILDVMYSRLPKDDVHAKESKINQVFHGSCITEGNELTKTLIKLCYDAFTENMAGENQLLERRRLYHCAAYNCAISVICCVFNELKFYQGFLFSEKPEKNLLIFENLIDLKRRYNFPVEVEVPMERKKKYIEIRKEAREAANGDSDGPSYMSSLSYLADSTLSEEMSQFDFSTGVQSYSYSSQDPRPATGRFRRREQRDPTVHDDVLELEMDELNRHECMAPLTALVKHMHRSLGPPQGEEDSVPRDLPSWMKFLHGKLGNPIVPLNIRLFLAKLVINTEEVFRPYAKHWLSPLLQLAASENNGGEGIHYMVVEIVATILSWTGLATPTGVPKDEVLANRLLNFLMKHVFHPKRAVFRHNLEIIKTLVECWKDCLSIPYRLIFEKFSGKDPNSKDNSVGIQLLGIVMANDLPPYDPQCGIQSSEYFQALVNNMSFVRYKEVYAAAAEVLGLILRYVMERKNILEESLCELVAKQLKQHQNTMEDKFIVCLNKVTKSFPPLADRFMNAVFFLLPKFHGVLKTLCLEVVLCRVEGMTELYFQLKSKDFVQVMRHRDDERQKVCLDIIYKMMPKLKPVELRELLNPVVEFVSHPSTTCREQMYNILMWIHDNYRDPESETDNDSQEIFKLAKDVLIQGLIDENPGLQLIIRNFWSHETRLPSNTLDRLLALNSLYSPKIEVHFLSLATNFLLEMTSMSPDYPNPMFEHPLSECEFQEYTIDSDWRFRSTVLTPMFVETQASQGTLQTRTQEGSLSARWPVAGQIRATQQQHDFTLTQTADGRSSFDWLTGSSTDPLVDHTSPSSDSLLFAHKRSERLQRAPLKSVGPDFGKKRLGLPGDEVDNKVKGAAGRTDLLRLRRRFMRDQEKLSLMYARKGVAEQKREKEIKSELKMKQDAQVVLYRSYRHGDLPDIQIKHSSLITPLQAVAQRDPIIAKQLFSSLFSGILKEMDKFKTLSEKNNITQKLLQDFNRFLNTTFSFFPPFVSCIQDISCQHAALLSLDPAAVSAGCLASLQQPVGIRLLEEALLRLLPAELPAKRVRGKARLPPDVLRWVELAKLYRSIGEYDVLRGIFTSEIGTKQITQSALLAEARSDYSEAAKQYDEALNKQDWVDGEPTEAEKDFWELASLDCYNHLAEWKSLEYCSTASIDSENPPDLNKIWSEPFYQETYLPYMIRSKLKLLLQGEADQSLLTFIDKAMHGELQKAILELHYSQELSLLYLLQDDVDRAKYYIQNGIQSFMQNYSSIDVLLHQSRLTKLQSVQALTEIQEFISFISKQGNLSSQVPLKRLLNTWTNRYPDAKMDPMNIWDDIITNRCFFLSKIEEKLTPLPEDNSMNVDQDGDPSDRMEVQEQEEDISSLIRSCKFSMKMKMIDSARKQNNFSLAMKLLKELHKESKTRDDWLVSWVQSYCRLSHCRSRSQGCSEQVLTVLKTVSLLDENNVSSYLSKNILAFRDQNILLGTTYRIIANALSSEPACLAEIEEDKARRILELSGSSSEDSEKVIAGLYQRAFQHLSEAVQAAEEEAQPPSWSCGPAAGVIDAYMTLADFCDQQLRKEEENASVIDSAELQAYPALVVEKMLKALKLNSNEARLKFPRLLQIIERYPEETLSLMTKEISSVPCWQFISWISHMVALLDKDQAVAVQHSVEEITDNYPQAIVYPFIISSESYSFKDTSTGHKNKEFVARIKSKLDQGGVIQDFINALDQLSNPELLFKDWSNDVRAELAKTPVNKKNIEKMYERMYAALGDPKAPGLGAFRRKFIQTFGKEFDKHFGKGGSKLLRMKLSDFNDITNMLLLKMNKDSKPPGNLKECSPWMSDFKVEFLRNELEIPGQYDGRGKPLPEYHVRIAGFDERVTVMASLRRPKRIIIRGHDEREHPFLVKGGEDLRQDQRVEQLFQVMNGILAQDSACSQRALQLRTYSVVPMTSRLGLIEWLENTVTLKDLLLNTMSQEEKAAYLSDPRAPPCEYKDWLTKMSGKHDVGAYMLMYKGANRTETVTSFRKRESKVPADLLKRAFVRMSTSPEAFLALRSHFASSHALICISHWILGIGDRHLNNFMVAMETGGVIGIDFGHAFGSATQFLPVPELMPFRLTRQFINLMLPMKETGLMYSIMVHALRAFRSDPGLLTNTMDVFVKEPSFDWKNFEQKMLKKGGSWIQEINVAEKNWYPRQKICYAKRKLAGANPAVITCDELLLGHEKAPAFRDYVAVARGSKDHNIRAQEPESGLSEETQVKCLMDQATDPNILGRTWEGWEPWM

Substance “adenovirus E4 34k protein (product of early region 4 ORF6), expressed from plasmid OE6.5 as a fusion with a c-myc epitope” has a V(D)J recombination frequency (recombinant formation of substrate plasmid pJH200 in transfected 293 cells) of 5 fold.
